In patent US20050136043A1, “TGFbeta signaling inhibitors” (Ludwig Institute for Cancer Research, priority 2003, published 2005) one finds peptide concentration and peptide concentration of maximal inhibition, in vitro kinase assay data, which are given here for two molecules.

No end group written: not given here.

In the assay the target is GST-TβR-I (GST fused to the cytoplasmic part, residues 148-503, of constitutively active TβR-I T204D, FLAG-tagged at the C-terminus), P36897. The experiment in a line: cell-based or functional assay.
Sequence of GST-TβR-I (GST fused to the cytoplasmic part, residues 148-503, of constitutively active TβR-I T204D, FLAG-tagged at the C-terminus), P36897 (P36897 148-503 T204D, form in doubt): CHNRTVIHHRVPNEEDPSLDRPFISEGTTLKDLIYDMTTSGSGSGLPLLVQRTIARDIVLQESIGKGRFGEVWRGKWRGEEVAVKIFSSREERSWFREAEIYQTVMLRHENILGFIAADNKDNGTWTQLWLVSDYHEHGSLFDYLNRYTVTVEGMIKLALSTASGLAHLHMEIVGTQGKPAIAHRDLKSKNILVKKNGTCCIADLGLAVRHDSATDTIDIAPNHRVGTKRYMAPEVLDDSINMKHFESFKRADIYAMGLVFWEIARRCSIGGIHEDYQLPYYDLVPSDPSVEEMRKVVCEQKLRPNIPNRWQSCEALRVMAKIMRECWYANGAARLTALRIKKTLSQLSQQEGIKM

As to RQIKIWFQNRRMKWKKTQMGSPSVRCSAMA-OH, the peptide concentration at which the effect was observed, in vitro kinase assay came out at 10 µM and the peptide concentration of maximal inhibition, in vitro kinase assay is 200 µM.

RQIKIWFQNRRMKWKKTQMGSPSVRCSSMS-OH [antp-Sm2S peptide (penetratin fused to the C-terminus of wild-type Smad2)] had a peptide concentration at which the effect was observed, in vitro kinase assay of 10 µM and a peptide concentration of maximal inhibition, in vitro kinase assay of 200 µM.
